Substitutions are numbered along the chain they refer to. Where two headings read alike, the source gives them in different places. One block for each binder: values may come before it.
Assays:
[1] = target: T1, monkey CD3ε-his (Cat #: 90047-C08H, SinoBiological, China) (monkey, UniProt Q95LI5 22-117); experiment: ELISA: plate coated with monkey CD3ε-his, antibody titrated, HRP goat anti-human IgG, OD450
T1 construct: Bought protein; also called monkey CD3ε protein; recombinant monkey CD3ε
T1 sequence: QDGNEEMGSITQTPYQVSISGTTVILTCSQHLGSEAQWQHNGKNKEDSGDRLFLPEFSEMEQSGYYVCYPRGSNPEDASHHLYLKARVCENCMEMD

[2] = target: T1, monkey CD3ε-his (Cat #: 90047-C08H, …); experiment: ELISA: plate coated with monkey CD3ε-his, antibody titrated, HRP goat anti-human IgG, OD 450
[3] = target: T2, human TCR/CD3 complex on cell surfaces (primary human CD4+ T cells; Jurkat cells; human PBMCs) (human, UniProt P07766 23-207); experiment: FACS on primary human T cells, PE goat anti-human IgG, MFI
T2 construct: whole, on cells; Native complex on cells; the γ, δ, ζ and TCR chains of the complex are present on the cells too; also called human CD3 complexes on cell surfaces; human CD3+ T cells
T2 sequence (P07766 23-207, one chain of several): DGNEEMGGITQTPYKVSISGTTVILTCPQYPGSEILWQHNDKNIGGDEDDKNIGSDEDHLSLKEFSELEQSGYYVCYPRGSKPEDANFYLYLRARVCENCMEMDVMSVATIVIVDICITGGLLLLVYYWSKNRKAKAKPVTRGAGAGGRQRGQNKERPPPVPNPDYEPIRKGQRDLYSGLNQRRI

[4] = target: T3, human CD3ε-his (Cat #:10977-H08s, SinoBiological, China) (human, UniProt P07766 23-126); experiment: ELISA: plate coated with human CD3ε-his, antibody titrated, HRP goat anti-human IgG, OD450
T3 construct: Bought protein; also called human CD3ε protein; recombinant human CD3ε; not shown: his tag
T3 sequence (P07766 23-126 limits assumed): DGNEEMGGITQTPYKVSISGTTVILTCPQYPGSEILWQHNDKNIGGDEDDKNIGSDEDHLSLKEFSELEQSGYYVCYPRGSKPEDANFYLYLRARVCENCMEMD

[5] = target: T3, human CD3ε-his (Cat #:10977-H08s, …); experiment: ELISA: plate coated with human CD3ε-his, antibody titrated, HRP goat anti-human IgG, OD 450
[6] = target: T3, human CD3ε-his (Cat #:10977-H08s, …); experiment: SPR (BIAcore 8K); human CD3ε-his coupled to CM5 chip, antibody injected
[7] = target: T1, monkey CD3ε-his (Cat #: 90047-C08H, …); experiment: ELISA: plate coated with monkey CD3ε-his, antibody titrated, HRP goat anti-human IgG, OD 450; remark: listed apart in the source
[8] = target: T2, human TCR/CD3 complex on cell surfaces …; experiment: FACS on primary human T cells, PE goat anti-human IgG, MFI; remark: listed apart in the source
[9] = target: T3, human CD3ε-his (Cat #:10977-H08s, …); experiment: ELISA: plate coated with human CD3ε-his, antibody titrated, HRP goat anti-human IgG, OD 450; remark: listed apart in the source
[10] = target: T2, human TCR/CD3 complex on cell surfaces …; experiment: FACS on primary human T cells, PE goat anti-human IgG, MFI; remark: listed apart in the source

B1: chimeric antibody 19-15 (full length, human IgG1) (antibody, V domains shown)
VH: EVKLLESGGGLVQPKGSLKLSCAASGFTFNTYAMNWVRQAPGKGLEWVARIRSKYNNYATYYAISVKDRFTISRDDSQSILYLQMNNLKTEDTAMYYCVRHGNFGNSYLSYWAYWGQGTLVTVSA
VL: QAVVTQESALTTSPGETVTLTCQSSTGAVTTNNYANWVQEKPDHLFTGLIGGTKQRAPGVPARFSGSLIGDKAALTITGAQTEDEAIYFCVLWYSNLWVFGGGTKLTVLG
EC50 (read off the curve) [1]: ~60 µg/mL
EC50 (read off the curve) [2]: ~0.04 µg/mL
EC50 (read off the curve) [3]: ~200 µg/mL
EC50 (read off the curve) [4]: ~60 µg/mL
EC50 (read off the curve) [5]: ~0.05 µg/mL
kon [6]: 229000 M⁻¹ s⁻¹

B3: humanized anti-CD3 antibody 15H3L3 (human IgG1, light constant region SEQ ID NO: 23) (antibody)
heavy: not shown
light: QAVVTQEPSLTVSPGGTVTLTCQSSTGAVTTNNYANWVQQKPGHAFRGLIGGTKQRAPGVPARFSGSLLGGKAALTLSGVQPEDEAEYYCVLWYSNLWVFGGGTKLTVLGQPKAAPSVTLFPPSSEELQANKATLVCLISDFYPGAVTVAWKADSSPVKAGVETTTPSKQSNNKYAASSYLSLTPEQWKSHRSYSCQVTHEGSTVEKTVAPTECS
EC50 (read off the curve) [1]: ~300 µg/mL
EC50 (read off the curve) [10]: ~0.2 µg/mL
EC50 (read off the curve) [4]: ~300 µg/mL

B4: humanized anti-CD3 antibody 15H3L2 (human IgG1) (antibody, V domains shown)
VH: B1 VH with K3Q, K15G, K19R, Q78K, S79N, I80T, N87S, K89R, T90A, A125S
VL: QTVVTQEPSLTVSPGGTVTLTCQSSTGAVTTNNYANWVQQKPGQAPRALIGGTKQRAPGTPARFSGSLLGGKAALTLSGVQPEDEAEYYCVLWYSNLWVFGGGTKLTVLG
EC50 (read off the curve) [1]: ~100 µg/mL
EC50 (read off the curve) [10]: ~0.2 µg/mL
EC50 (read off the curve) [4]: ~100 µg/mL

B5: chimeric antibody 19-26 (full length, human IgG1) (antibody, V domains shown)
VH: B1 VH with I64D, L109I, Y111W
VL: B1 VL with Q23K, N32S, K54N, Q55L, R56H, V91A
EC50 (read off the curve) [3]: ~700 µg/mL
EC50 (read off the curve) [7]: ~0.1 µg/mL
EC50 (read off the curve) [8]: ~0.2 µg/mL
EC50 (read off the curve) [9]: ~0.1 µg/mL
EC50 (read off the curve) [5]: ~0.05 µg/mL

Other lines, results leading:

EC50 (read off the curve) [7]: ~0.1 µg/mL
EC50 (read off the curve) [8]: ~0.1 µg/mL
EC50 (read off the curve) [9]: ~0.1 µg/mL
B2: humanized anti-CD3 antibody 26H2L3 (human IgG1) (antibody, V domains shown)
VH: EVQLLESGGGLVQPGGSLRLSCAASGFTFNTYAMNWVRQAPGKGLEWVARIRSKYNNYATYYADSVKDRFTISRDNSKNTLYLQMNSLRAEDTAVYYCVKHGNFGNSYISWWAYWGQGTLVTVSS
VL: QAVVTQEPSLTVSPGGTVTLTCKSSTGAVTTSNYANWVQQKPGHAFRGLIGGTNLHAPGVPARFSGSLLGGKAALTLSGVQPEDEAEYYCALWYSNLWVFGGGTKLTVLG

Kd [6]: 0.154 nM
B6: mAB2 (anti-CD3 antibody of Macrogenics, positive control) (antibody, V domains shown)
VH: B2 VH with L5V, R19K, N76D, L81A, R89K, A90T, K100R, N106D, I109V, W112F
VL: QTVVTQEPSLTVSPGGTVTLTCRSSTGAVTTSNYANWVQQKPGQAPRGLIGGTNKRAPGTPARFSGSLLGGKAALTLSGVQPEDEAEYYCALWYSNLWVFGGGTKLTVL
